Data as given in the nanobody polyreactivity screen of Harvey et al. (2022).

Experiment: yeast display, Sf9 membrane polyspecificity reagent, FACS + sequencing; frameworks hold sequencing errors
Procedure, shortened: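 Galactose-induced (36–48 hours) yeast carrying a synthetic nanobody display library were exposed to 10% biotinylated, detergent-solubilized Sf9 membrane reagent at 4 °C for 1 hour. FACS followed streptavidin microbead enrichment, using low and high (top ~1%) gates for expression (anti-HA) and reagent binding (streptavidin). Colony PCR, MiSeq 2 × 250 sequencing and CDR-length filtering followed. Labels for polyreactivity reflect the gate of origin.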

| Sequence | polyreactivity (PSR sort gate) |
| --- | --- |
| QVQLVESGGGLVQAGGSLRLRCAASGIIFGTNAMGWYRQAPGKERELVAGITSSGDSTYYADSVKGRFTISRDNAKNTVYLQMNSLKAEDTAVYYCARDIRTREFDSWGQGTQVTVSS | low polyreactivity |
| QVQLVESGGGLVQAGGSLRLSCAASGSIFGYYTMGWYIQAPGKERELVAAITSGGSTNYADSVKGRFTISRDNAKNTVYLQMNSLKPEDTAVYYCAKVSYYPWRYDYWGQGTQVTVSS | low polyreactivity |
| QVQLVESGGGFVQAGGSLSLSCAASGSTFIRYVMGWYRQAPGKERELVASITISVGSTYADSVKGRFTISRDNAKNTVYLQMNRMNPEDTAVYYCAASTLKDIYLWFRVDYWGQGTQVTVSS | low polyreactivity |
| QVQLVDSGGGLVQAGGSLRLSCAASGAIFEYYAMAWNRQAPGKERELVAAISWSGGSTYYADSVKGRFTISRDNAKNTVYLQMNSLKPEDTAVYYCAADYYLYQVYTGYDYWGQGTQVNVSS | low polyreactivity |
| QVQLVESGGGLVQAGGSLRISCAASGRNLSVYAMGWYRPAPGKERELVATITGRGGGTYYADSVKGRFTISRDNAKNTVYLQMNRLKPEDTAVYYCAADLVDFWYQITTHYDYWGQGTEVTVSS | low polyreactivity |
| QVQLVESGGGLVQSGGSLRLSCAASGRIFWYNAMRWYSQAPGKDRELVARITRGTRTYYADSVKGRFTISRDNAKNTVYLQMNSLKPEDTAVYYCRLQFSYTPHYDYWGQGTQVTVSS | high polyreactivity |
| QVQLVESGGGLVQAGGSLRLSCAASGRNFPGYARGWYRQAPGKEGELVAGINWSSGSTYYADSVKGRFTISRDNAKNTVYLQMNSLKPEDTAVYYCNALGYWRSTVHYVVGEVDYWGQGTQVTVSS | low polyreactivity |
| QGQLVESGPVLVQAGCSLRLSSAASGYTFGWYAMGWYRQAPGKLRELVAGISSAGSTNYADSVNGRFTISRDNANINVYLQMNSLKPEDTAVYYCAAEVRYWFLADDYWGQGTQVTVSS | high polyreactivity |
| QVQLVESGGGLVQAGGRLRLSFAASGLTFWWYAMGWYRQAPGKERELVAAIDSADITNYADSVKGRFTISRDNAKNTVYLQMNSLKPEDTAVYYCAAGRDYYVVNYVLFLFDYWGQGTQVTVSS | high polyreactivity |
| QVQLVESGGGLVQAGGSLRLSCAASGRIFRGNVMGWYRQAPGTERELVAAISGSGGSTYYADSVKGRFTISRDNAKNTVYLQMNSLKPEDTAVYYCAAGTAKTPRRSVGYWGQGTQVTVSS | high polyreactivity |
| QVQLQESGGGLVQAGGSLRMSCAASGKIFDADIMGWYRQAPGKERELVASNTDGRRTNYADSVKGRYTISRDSEKNTVYLQMNSLKAEDTAEYYCAAIAYPVVPTSFDYDSDYFHWGQGTQVTVSS | high polyreactivity |
| QVQLVESGGGLVQAGGSLRLSCAASGITFYPNDMGWYRQAPGKERELVAAITTNDGDTYYADSVKGRFTISRDNAKNTVYVQMNSLKPEDTAVYYCATGIDKGPVWVTYSTDYDYWGQGTQVTVSS | low polyreactivity |
| QVQLVESGGGLVEAGGSLRLSCAASGGTFKLYAMGWYRPAPGKERELVAAISRRGGSTYYADSVKGRFTISRDNAKNTVYLQMNSLKPDDTALSNCAAPGPTQSTQRGGYWGQGTQVTVSS | high polyreactivity |
| QVQLVESGGGLVQAGGSLRLSCAASVFTFAPNAMGWYRQAPGKERELVAVIDSGGSTNYADSVKGRFTISRDNAKNTVYLQMNSLKPEDTAVYYCATDVPLDYYWLWDDYWGQGTQVTVSS | low polyreactivity |
| QVQLVESGGGLVQAGGSLRLSCAASGFIFRDNAMGWYRQAPGKERELVAAISERGGRTYYADSVKGRFTISRDNAKNTVYLQMNSLKPEDTAVYYCAAEDIANFYYWGQGTQVTVSS | high polyreactivity |
| QVQLGESGGGLVQAGGSLRLSCAASGFIFPGYAMGLYRQAPGKERELVAAITGSGGSTYYADSVKGRFTISRDNAKYTVYVQMNSVKTEDTAVDYCGAYVSGYLWGYDYWGHGTQVTVSS | high polyreactivity |
| QVQLVESGGGLVQAGGSLRLSCAASGSIFKYNAMGWYRQAPGKEREFVAAISSSSGNTYYADSVKGRFTISRDNAKNSVYIQMNSLKPEDTAVYYCAARTFAYRRGWFGYWGQGTQVTVSS | high polyreactivity |
| QVQLVESGGGLVQAGGSLRLSCAASGFTFTAYAMGWYRQAPGKERELVAAINWSGSRTYYADSVKGRFTISRDNAKNNVYLKMNSLKPEDTAVYYCNTATSKSSYRHYDYWGQGTQVTVSS | high polyreactivity |
| QVQLVESRGGLVQAGGSLRLSCAASGSIFPFYAKGWYRQAPGKEREFVASISSGGSTNYADSVKGRFTISRDNAKNTVYLQMNSLKPEDTAVYYCNADVPYRWDTWFQVVYPESYDYWGQGTQVTVSS | low polyreactivity |
| QVQLVESGGGLVQAGGSLRLSCAASGSSFTWYAMGWYRQAPGKERELVAAITRGGSTYADSVKGRFTISRDNAKNTVYLQMNSLKPEDTAVYYCNAVYGVYDFNYWGQGTQVTVSS | low polyreactivity |
| QVQLVESGGGLVQAGGSLRLSCAASGITFTGNAMGWYRQAPGKERELVAAISNRGGSTYYADSVKGRFTISRDNAKNTVYLQMNSLKPEDTAVYYCRTSTPRRVSGNSWGQGTQVTVSS | high polyreactivity |
| QVQLVESGGGLVQAGGSLRLSCAASGRTSRYYAMGWYRQAPGKERELVAAISSSGGNTYYADSVKGRFTISRDNAKNTVYLQMNSLKPEDTAVYYCNAYYPIRSSPYGYYYWGQGTQVTVSS | high polyreactivity |

| Sequence | polyreactivity (PSR sort gate) |
| --- | --- |
| QVQLVESGGGLVQAGGSLRLSCAASGFTFRGYAMGWYRQAPGKERELVAVISSGGSTNYADSVKGRFTISRDNAKNTVYLQMNSLKPEDTAVYYCNAGYWFRYYGGDYYLGGLNYYWGQGTQVTVSS | low polyreactivity |
| QVQLVESGGRLVQAGGILRLSCAASGFIFLSYAMGWYRQAPGKERELVAAITSNGGSTYYADSVKGRFTISRDNAKNTVYLQMNSLKPEDTSVYYCAARFSQGKVRMGYWGQGTQVTVSS | high polyreactivity |
| QVQLVESGGGLVQAGGSLRLSCAASGFIFVPYAMGWYRQAPGKEREFVAAIRCSGGRTYYADSVKGRFSISRDYAKNTVYLQMNSLKPDDTAVYYCAADTWQDRVRKTSFGYDYWGQGTQVTVSS | high polyreactivity |
| QVQLVESGGGLVQAGGSLRLSCAASGSTFQTDTMGWYRQAPGKERELVASITWRGGRTYYADSVKGRFTISRDNAKNTVYLQMNSLKPEDTAVYYCAAVTFSYDGYDYWGQGTQVTVSS | low polyreactivity |
| QVQLVESGGGLVQAGGSLRLSCAASGSTRYNAMGWYRQAPGKERELVASIRGNAGSTYYADSVKGRFTISRDNAKNTVYLQMNSLKPEDTAVYYCNARVLRYSCFHYDYCGQGTQVTVSS | high polyreactivity |
| QVQLVESGGGLVQAGGSLRLSCAASGSIFLPYAMGWYRQAPGKEREFVAAIRWSTGRTFYADSVKGRVTISRDNAKNTVYLQMNSLKPEDTAVYYCAAKYYDSWYTYRYDYWGQGTQVTVSS | high polyreactivity |
| QVQLVESGGGLVQAGGSLRLSCAASGSIFKWNDMGWYRQSPGKERELVAAITWSGGRTYYADSVKGRFTISRDNAKNTVYLQMNSLKPEDTAVYYCAATQYRSDGWRYDYWGQGTQVTVSS | high polyreactivity |
| QVQLQESGGGLVQAGGSLRLTCAASGSIFLNSEMGWYRQAPGKERELVAAIATGTSTNYADSVKGRFTISRDNAKNTVYLQMNSLKPEDTAVYYCATYHYWGQGTQVTVSS | low polyreactivity |
| QVQHVESGGGLVQAGGSLRLSCAASGDIFRPNAMGWYRQAPGKERELVAAITRSGGTTYYADSVKGRFTISRDYAKNTVYLQMNSLNPEDTAVYYCAARGLQYYRYDYWGQGTQVTVSS | low polyreactivity |
| QVQLVESGGGLVQAGGSLRLSCAASGSTLYTYAMGWYRQAPGKERELVAAIRLSGGRTYYADSVKGRFTISRDNAQNTVYLQMNSLKPEDTAVYYCAVDWSYSRYDYWGQGTQVTVSS | high polyreactivity |
| QFKLVESGGVLVKEGGRLRLICAASGSTFDENDMGRYRQAPGKEMEIVAVIYIGTSTNYADSVKGRFTISRDNAKNTVYLQMNSLKPEDTAVYYCAADVPGSYLVAIVGNAFNYWGQGTQVTVSS | low polyreactivity |
| QVQLVESGGGLVQAGGSLRLSCAASGFTFFGYAMGWYRQEPGKERELVAAISTIDGDTYYADSVKGRFTISRDNAKNSFYFLMNSLKPEDTAVYYCAADDYIDGDDYWGQGTQVTVSS | low polyreactivity |
| QVQLVESGGGLVQAGGSLRLSCAPSGRTFRYYTMGWYRQAPGKERELVAAISSAGRTYYADSVKGRFTISRDNAKNTVYLQMNSLKPEDTAVYYCAAYGGDKIRMDYWGQGTQVTVSS | high polyreactivity |
| QVQLVESGGGLVQAGGSLRLSCAASGIIFTYYAMGWYRQAPGKERELVAAISYRGGSTNYADSVKGRFTISRDNAKNTVYLQMNSLKPEDTAVYYCAAKSYWKRFRVLYDYWGQGTQVTVSS | high polyreactivity |
| QDQLVESGGGLVQAGASLRLSCAASGSIICLYAMGWYRQAPGKERELVARITRSGGRTYYADSVKGRFTISRDNAKNTVYLQTNSLKPEDTAVYYCNAYGPNIYSSRYDYWGQGTQVSVSS | low polyreactivity |
| QVQLVESGGGLVQAGGSHRLSCAASGRTFSYYAMGWYRQAPGKEREMDADISKSGGRTYYADSLKGRFTISRDNAKNTVYLQMNSLKPEDTAVYYCAAGFYWAVYYSVDYWGQGTQVTVSS | high polyreactivity |
| QVQLVESGGGLVQAGGSLRLICAASGRIFHPYAMAWYRQAPGKERELVATISWSGGSTTYEDSVKGRFTISRDNAKNTVYLQMNSLKPEDTAVYYCNADYWWSYVRFVYWGQGTQVTVSS | low polyreactivity |
| QFQLVESGGGLVQAGGSLRLSCAASGSTFIYYTMGWYRQAPGKERELVAAIPSSGGSTYYADSVKGRFTISRDNAKNTVYFQMNSLKPEDTAVYYCAADGTYIKFAKLYRRYDYWGQGTQVTVSS | low polyreactivity |
| QVQLVESGGGLVQAGGSLRLSCAASVYTVVWYAMGWYRPAPGKERELVAVITSGGGTNYADSVKGRFTISRDNAKNTVYLQMNSLKPEDTAVYYCAAVWYTSRQKYDYWGQGTQVTVSS | low polyreactivity |
| QGQLVESGGGLVQAGGSLRLSCAASGGIFVGYPMGWYRQAPGKERELVASSDVRVGSTYYGDSVKGRFTISRDKAKNTVYLQMTSLKPEDTAVYSCEAGGRAVRIYWGYYRTSYDYWGLGTQVTVSS | low polyreactivity |
| QVQLVESGGGLVQAGGSLRLSCAASGFIFSKYAMGWYRQAPGKERELVAAITFSGGSTYYADSVKGRFTISRDNAKNTVYLQMNSLKPEDTAVYYCNAEGSYPDVSPVLGYDYWGQGTQVTVSS | low polyreactivity |
